Values of other authors as cited in patent US10316097B2, “Method for the treatment of epilepsy, epileptogenesis, seizures or convulsions by an anti-colony-stimulating factor 1 receptor (CSF-1R) antibody” (UCB BIOPHARMA SPRL, priority 2015, dated 2019).

Columns and labels:
[1] = systemic administration in rodents
[2] = system: TNF-α-driven inflammation in the brain; conditions: systemic administration in rodents

etanercept
Crossing of the blood-brain barrier (BBB) [1]: does not cross the blood-brain barrier
Effect on TNF-α-driven inflammation in the brain [2]: does not affect
